Reference: patent publication US20210379157A1 (UNIVERSITY OF ULSTER, published 2021)
Where no end group is shown, it is not given here. [ ]: non-standard residue; d: D form.

Biological target: T1, GIP receptor (human, UniProt P48546 22-466)
T1 sequence (looked up): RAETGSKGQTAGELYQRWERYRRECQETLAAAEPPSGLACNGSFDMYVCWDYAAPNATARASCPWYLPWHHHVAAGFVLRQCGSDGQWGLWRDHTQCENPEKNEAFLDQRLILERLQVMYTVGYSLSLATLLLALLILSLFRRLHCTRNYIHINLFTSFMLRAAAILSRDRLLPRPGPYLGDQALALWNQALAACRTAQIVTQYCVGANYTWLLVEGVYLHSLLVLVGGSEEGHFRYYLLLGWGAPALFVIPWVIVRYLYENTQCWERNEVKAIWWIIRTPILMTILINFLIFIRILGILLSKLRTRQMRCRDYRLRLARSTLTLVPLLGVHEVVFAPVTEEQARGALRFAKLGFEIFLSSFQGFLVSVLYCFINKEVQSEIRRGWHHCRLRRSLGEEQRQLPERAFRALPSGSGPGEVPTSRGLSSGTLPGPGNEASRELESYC
Experiment: cell-based or functional assay

## Y[dA]EGTFISDYSIAMHPQQPWILGAADDDDDD [(DAla2)GIP/xenin-8-Gln(L-Asp)]
  cAMP production in SaOS-2 cells, lowest effective concentration: 10 nM

## Y[dA]EGTFISDYSIAMHPQQPWIL [(DAla2)GIP/xenin-8-Gln]
  cAMP production in SaOS-2 cells, lowest effective concentration: 0.1 nM

## Y[dA]EGTFISDYSIAMHPQQPWILGAAEEEEEE [(DAla2)GIP/xenin-8-Gln(L-Glu)]
  cAMP production in SaOS-2 cells, lowest effective concentration: 1000 nM
